B1: Abl interactor 2 (Homo sapiens), Q9NYB9 (parent)
chain: MAELQMLLEEEIPGGRRALFDSYTNLERVADYCENNYIQSADKQRALEETKAYTTQSLASVAYLINTLANNVLQMLDIQASQLRRMESSINHISQTVDIHKEKVARREIGILTTNKNTSRTHKIIAPANLERPVRYIRKPIDYTILDDIGHGVKWLLRFKVSTQNMKMGGLPRTTPPTQKPPSPPMSGKGTLGRHSPYRTLEPVRPPVVPNDYVPSPTRNMAPSQQSPVRTASVNQRNRTYSSSGSSGGSHPSSRSSSRENSGSGSVGVPIAVPTPSPPSVFPAPAGSAGTPPLPATSASAPAPLVPATVPSSTAPNAAAGGAPNLADGFTSPTPPVVSSTPPTGHPVQFYSMNRPASRHTPPTIGGSLPYRRPPSITSQTSLQNQMNGGPFYSQNPVSDTPPPPPPVEEPVFDESPPPPPPPEDYEEEEAAVVEYSDPYAEEDPPWAPRSYLEKVVAIYDYTKDKEDELSFQEGAIIYVIKKNDDGWYEGVMNGVTGLFPGNYVESIMHYSE
partner: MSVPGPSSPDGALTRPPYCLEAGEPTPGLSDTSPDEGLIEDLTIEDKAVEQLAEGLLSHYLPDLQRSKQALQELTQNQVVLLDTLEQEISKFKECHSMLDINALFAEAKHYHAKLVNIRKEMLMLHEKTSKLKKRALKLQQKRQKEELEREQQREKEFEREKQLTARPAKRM
B2: Glucosamine-6-phosphate deaminase 2 (Homo sapiens), Q8TDQ7 (parent)
chain: MRLVILDNYDLASEWAAKYICNRIIQFKPGQDRYFTLGLPTGSTPLGCYKKLIEYHKNGHLSFKYVKTFNMDEYVGLPRNHPESYHSYMWNNFFKHIDIDPNNAHILDGNAADLQAECDAFENKIKEAGGIDLFVGGIGPDGHIAFNEPGSSLVSRTRLKTLAMDTILANAKYFDGDLSKVPTMALTVGVGTVMDAREVMILITGAHKAFALYKAIEEGVNHMWTVSAFQQHPRTIFVCDEDATLELRVKTVKYFKGLMHVHNKLVDPLFSMKDGN
partner: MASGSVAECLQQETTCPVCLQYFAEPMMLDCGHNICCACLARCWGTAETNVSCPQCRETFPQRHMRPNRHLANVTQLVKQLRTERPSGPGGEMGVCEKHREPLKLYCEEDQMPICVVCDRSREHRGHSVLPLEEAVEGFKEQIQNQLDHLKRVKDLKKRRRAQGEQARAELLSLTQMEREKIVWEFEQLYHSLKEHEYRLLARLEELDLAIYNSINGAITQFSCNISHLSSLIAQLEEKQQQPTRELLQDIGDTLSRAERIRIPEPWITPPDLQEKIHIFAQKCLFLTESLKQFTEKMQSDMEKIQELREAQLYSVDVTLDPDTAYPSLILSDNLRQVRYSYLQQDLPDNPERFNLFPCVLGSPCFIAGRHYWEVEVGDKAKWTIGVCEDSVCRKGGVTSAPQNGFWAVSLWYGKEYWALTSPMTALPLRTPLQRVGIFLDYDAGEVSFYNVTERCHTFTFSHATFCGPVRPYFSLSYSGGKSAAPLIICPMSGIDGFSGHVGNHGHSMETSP
B3: Late cornified envelope protein 1B (Homo sapiens), Q5T7P3 (parent)
chain: MSCQQNQQQCQPPPKCIPKCPPKCLTPRCPPKCPPKCPPVSSCCSVSSGGCCGSSSGGSCGSSSGGCCSSGGGGCCLSHHRRRRSHCHRPQSSGCCSQPSGGSSCCGGGSGQHSGGCC
partner: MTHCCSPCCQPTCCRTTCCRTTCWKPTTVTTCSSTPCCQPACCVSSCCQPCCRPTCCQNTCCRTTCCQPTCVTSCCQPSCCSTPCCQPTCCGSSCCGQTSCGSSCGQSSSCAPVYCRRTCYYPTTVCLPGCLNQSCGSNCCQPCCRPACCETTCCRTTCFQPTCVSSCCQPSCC
B4: Zinc finger protein ZXDC (Homo sapiens), Q2QGD7 (parent)
chain: MDLPALLPAPTARGGQHGGGPGPLRRAPAPLGASPARRRLLLVRGPEDGGPGARPGEASGPSPPPAEDDSDGDSFLVLLEVPHGGAAAEAAGSQEAEPGSRVNLASRPEQGPSGPAAPPGPGVAPAGAVTISSQDLLVRLDRGVLALSAPPGPATAGAAAPRRAPQASGPSTPGYRCPEPQCALAFAKKHQLKVHLLTHGGGQGRRPFKCPLEGCGWAFTTSYKLKRHLQSHDKLRPFGCPVGGCGKKFTTVYNLKAHMKGHEQESLFKCEVCAERFPTHAKLSSHQRSHFEPERPYKCDFPGCEKTFITVSALFSHNRAHFREQELFSCSFPGCSKQYDKACRLKIHLRSHTGERPFICDSDSCGWTFTSMSKLLRHRRKHDDDRRFTCPVEGCGKSFTRAEHLKGHSITHLGTKPFECPVEGCCARFSARSSLYIHSKKHVQDVGAPKSRCPVSTCNRLFTSKHSMKAHMVRQHSRRQDLLPQLEAPSSLTPSSELSSPGQSELTNMDLAALFSDTPANASGSAGGSDEALNSGILTIDVTSVSSSLGGNLPANNSSLGPMEPLVLVAHSDIPPSLDSPLVLGTAATVLQQGSFSVDDVQTVSAGALGCLVALPMKNLSDDPLALTSNSNLAAHITTPTSSSTPRENASVPELLAPIKVEPDSPSRPGAVGQQEGSHGLPQSTLPSPAEQHGAQDTELSAGTGNFYLESGGSARTDYRAIQLAKEKKQRGAGSNAGASQSTQRKIKEGKMSPPHFHASQNSWLCGSLVVPSGGRPGPAPAAGVQCGAQGVQVQLVQDDPSGEGVLPSARGPATFLPFLTVDLPVYVLQEVLPSSGGPAGPEATQFPGSTINLQDLQ
partner: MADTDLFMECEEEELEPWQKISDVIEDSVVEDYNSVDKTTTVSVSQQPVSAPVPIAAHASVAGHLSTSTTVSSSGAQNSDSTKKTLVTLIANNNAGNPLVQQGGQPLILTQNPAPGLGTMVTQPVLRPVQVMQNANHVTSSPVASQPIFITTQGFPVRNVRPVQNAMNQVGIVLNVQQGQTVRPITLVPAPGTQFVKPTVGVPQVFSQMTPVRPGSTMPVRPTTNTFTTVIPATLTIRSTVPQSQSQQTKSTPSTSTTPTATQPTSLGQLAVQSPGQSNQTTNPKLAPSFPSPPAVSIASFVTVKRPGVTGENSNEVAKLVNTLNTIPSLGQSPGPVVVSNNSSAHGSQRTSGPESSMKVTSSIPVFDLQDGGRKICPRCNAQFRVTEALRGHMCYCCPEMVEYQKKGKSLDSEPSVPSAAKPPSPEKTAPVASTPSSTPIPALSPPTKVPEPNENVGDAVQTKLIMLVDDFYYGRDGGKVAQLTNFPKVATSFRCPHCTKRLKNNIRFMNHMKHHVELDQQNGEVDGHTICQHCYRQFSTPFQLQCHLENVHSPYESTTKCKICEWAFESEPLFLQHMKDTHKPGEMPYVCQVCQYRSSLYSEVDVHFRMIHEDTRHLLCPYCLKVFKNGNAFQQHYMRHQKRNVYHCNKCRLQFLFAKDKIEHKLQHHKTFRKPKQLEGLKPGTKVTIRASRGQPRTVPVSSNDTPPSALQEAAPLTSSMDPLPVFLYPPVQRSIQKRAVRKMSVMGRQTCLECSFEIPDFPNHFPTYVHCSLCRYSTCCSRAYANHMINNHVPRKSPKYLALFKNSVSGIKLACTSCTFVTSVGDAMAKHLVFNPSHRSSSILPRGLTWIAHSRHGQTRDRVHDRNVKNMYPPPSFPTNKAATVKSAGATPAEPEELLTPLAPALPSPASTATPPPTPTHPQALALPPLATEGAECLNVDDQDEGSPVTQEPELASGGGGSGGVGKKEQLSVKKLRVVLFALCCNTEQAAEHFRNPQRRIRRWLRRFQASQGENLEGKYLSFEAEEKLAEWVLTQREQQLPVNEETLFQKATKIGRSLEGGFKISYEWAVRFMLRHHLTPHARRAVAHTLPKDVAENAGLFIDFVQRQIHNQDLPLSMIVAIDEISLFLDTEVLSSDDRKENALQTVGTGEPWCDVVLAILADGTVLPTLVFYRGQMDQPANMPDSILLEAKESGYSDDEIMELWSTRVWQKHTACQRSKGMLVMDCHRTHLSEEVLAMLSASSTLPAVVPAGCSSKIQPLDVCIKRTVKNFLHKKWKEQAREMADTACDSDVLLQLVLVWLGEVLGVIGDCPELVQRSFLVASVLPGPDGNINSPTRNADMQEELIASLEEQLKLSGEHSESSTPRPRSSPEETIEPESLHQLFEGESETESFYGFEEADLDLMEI
B5: Late cornified envelope protein 1B (Homo sapiens), Q5T7P3 (parent)
chain: B3 chain
partner: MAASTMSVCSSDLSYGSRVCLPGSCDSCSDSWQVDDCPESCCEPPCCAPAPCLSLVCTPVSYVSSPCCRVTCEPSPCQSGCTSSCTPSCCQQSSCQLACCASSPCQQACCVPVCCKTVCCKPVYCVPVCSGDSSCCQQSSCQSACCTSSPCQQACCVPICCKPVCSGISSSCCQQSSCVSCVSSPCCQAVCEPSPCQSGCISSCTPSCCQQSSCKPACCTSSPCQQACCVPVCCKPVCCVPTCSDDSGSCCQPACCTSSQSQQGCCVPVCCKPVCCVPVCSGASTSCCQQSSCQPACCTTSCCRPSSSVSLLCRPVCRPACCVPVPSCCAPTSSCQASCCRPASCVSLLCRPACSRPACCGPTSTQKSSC
B6: U3 small nucleolar RNA-associated protein 25 homolog (Homo sapiens), Q68CQ4 (parent)
chain: MGKRGSRSQSQLLNTLTKKQKKHLRDFGEEHPFYDRVSRKEAKPQICQLSESSDSSDSESDSESEPQQVSGYHRLLATLKNVSEEEEEDEEEEEEEDSIVDDAEMNDEDGGSDVSVEEEMAAESTESPENVALSADPEGKEDGEEPPGTSQTSPEEFTDAKHESLFSLETNFLEEESGDNSSLKASQDPFLQHVNKELKEKAIQAVATNPKTTHELKWPILGQLFFSSKFQKLETFKPPKDIDLKSLHLQKPLESTWTKTNSQFLSGPQKSSSPFTPLQKELFLIMNSYRDLFYPERTALKNGEEIRHVYCLHVINHILKANAQVLGNNSRRRSQKFGVGDDDDFRDQGLTRPKVLIVVPFREAALRVVQLFISLLEGDSKKKIIVSNKKRFQGEYGSDPEERPPNLKRPEDYEAVFVGNIDDHFRIGVAILQRSIRLYAPFYSSDILIASPLGLRTIIGGEGEKKRDFDFLSSIELLIIDQADIYLMQNWEHVLHLMNHMNLLPLDSHGVDFSRVRMWSLNNWSKYYRQTLLFGALQDAQINSVFNKYCVNMQGQVAVRNVPMTGSISHVLVQLPHVFQRMEAENLASVIDARFNFFVNKILPQYRDAVMSHTLIYIPSYFDFVRLRNYFKKEELNFTHICEYTQKSGVSRARHFFLQGEKQFLLFTERFHFYKRYTIKGIRNLIFYELPTYPHFYSEICNMLRATNRGEEATWTCTVLYSKYDAQRLAAVVGVERAAQMLQSNKNVHLFITGEK
partner: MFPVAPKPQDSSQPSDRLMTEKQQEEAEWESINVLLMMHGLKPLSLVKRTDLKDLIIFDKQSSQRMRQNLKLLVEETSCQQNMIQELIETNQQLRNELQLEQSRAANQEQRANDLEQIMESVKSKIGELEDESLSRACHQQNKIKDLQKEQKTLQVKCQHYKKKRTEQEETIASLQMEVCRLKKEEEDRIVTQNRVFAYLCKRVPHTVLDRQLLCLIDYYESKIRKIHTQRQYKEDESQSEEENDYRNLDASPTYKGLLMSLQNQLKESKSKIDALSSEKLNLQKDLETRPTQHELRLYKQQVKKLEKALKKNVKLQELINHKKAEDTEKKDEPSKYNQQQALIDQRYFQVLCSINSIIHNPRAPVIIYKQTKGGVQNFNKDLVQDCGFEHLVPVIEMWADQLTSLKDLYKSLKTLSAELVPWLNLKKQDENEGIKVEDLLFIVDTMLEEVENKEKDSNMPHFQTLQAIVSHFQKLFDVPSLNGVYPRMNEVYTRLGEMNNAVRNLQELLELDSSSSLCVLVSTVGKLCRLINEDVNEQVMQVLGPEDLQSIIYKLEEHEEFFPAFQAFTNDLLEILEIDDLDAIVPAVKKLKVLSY

Variants of: B1
Conditions: with bl1s6_human BLOC1S6, Q9UL45

effect of a mutation on the interaction | Variant
with no effect | E202K

Variants of: B2
Conditions: with tri27_human TRIM27, P14373

effect of a mutation on the interaction | Variant
with no effect | I216V

Variants of: B3
Conditions: with kra92_human KRTAP9-2, Q9BYQ4

effect of a mutation on the interaction | Variant
disrupting interaction strength | C16Y

Variants of: B4
Conditions: with pogz_human POGZ

effect of a mutation on the interaction | Variant
with no effect | T589M

Variants of: B5
Conditions: with kr107_human KRTAP10-7, P60409

effect of a mutation on the interaction | Variant
disrupting interaction strength | C16Y

Variants of: B6
Conditions: with cep70_human CEP70, Q8NHQ1

effect of a mutation on the interaction | Variant
with no effect | D399E

From IntAct's records for PubMed 29892012
